Results as given in patent publication US20050282743A1, “Molecular interactions in cells” (Arbor Vita Corporation, priority 2001, published 2005).

T1: GST-KIAA0147 PDZ domain 3 (Homo sapiens (Human)), Q14160
T1 chain: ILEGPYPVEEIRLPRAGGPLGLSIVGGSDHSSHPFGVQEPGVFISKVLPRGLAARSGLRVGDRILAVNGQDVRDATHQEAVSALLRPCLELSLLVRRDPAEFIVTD

T2: GST-INADL PDZ domain 5 (Homo sapiens (Human)), Q8NI35
T2 chain: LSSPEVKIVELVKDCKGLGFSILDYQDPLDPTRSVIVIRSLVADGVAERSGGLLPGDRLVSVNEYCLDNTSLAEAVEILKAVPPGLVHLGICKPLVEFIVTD

T3: GST-MUPP1 PDZ domain 11 (Homo sapiens (Human)), O75970
T3 chain: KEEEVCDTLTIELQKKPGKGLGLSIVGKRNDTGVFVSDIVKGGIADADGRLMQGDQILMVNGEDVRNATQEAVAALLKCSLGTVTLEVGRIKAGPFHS

T4: GST-INADL PDZ domain 8 (Homo sapiens (Human)), Q8NI35
T4 chain: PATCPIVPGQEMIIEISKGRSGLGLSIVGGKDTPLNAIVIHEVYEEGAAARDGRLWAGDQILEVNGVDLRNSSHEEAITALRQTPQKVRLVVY

T5: GST-KIAA1634 PDZ domain 2 (Homo sapiens (Human)), Q5TCQ9
T5 chain: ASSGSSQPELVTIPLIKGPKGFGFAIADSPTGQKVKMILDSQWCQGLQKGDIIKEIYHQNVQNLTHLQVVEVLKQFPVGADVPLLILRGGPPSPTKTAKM

T6: GST-DLG2 PDZ domain 2 (Homo sapiens (Human)), Q15700
T6 chain: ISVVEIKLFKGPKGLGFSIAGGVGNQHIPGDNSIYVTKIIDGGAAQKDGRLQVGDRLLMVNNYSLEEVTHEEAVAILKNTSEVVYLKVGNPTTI

T7: GST-NeDLG PDZ domain 3 (Mus musculus (Mouse)), P70175
T7 chain: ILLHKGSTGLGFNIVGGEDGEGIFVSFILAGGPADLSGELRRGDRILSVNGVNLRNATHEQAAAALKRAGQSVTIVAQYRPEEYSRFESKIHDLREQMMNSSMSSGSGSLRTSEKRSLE

T8: GST-NeDLG PDZ domain 2 (Rattus norvegicus (Rat)), Q62936
T8 chain: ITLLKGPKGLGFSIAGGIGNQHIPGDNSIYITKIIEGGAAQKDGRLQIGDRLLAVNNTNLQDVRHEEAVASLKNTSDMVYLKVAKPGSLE

T9: GST-PTPL1 PDZ domain 4 (Homo sapiens (Human)), Q12923
T9 chain: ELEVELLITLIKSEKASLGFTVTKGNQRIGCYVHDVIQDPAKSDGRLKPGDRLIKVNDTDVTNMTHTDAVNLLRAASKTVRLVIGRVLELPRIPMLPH

T10: GST-X-11 beta PDZ domain 2 (Rattus norvegicus (Rat)), O35431
T10 chain: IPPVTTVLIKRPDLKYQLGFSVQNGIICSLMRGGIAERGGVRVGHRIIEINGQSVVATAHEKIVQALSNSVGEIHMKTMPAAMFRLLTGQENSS

T11: GST-KIAA0147 PDZ domain 4 (Homo sapiens (Human)), Q14160
T11 chain: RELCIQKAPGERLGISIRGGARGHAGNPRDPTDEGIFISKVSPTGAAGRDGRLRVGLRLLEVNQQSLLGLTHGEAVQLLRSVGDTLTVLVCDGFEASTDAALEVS

T12: GST-ZO-2 PDZ domain 1 (Homo sapiens (Human)), Q9UDY2
T12 chain: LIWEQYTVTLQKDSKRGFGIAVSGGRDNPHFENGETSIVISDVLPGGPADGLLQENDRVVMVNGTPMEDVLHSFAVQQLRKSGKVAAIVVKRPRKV

T13: GST-DLG1 PDZ domain 2 (Homo sapiens), Q12959
T13 chain: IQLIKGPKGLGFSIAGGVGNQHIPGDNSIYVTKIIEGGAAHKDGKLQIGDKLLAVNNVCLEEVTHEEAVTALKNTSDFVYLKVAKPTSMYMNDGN

T14: GST-ZO-1 PDZ domain 1 (Rattus norvegicus (Rat)), A0A0G2
T14 chain: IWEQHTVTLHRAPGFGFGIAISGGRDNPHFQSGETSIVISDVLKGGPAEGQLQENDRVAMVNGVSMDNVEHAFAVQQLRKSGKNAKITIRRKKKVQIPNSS

B1: NMDA Glutamate Receptor 2C (cysteine-free) (peptide)
peptide: TQGFPGPATWRRISSLESEV
modifications: not checked
B2: catenin - delta 2 (peptide)
peptide: PYSELNYETSHYPASPDSWV
modifications: not checked
B3: KIA 1481 (peptide)
peptide: PIPAGGCTFSGIFPTLTSPL
modifications: not checked
B4: AdenoE4 typ9 (peptide)
peptide: VGTLLLERVIFPSVKIATLV
modifications: not checked
B5: alpha-2A Adrenergic receptor (peptide)
peptide: HDFRRAFKKILARGDRKRIV
modifications: not checked
Further: key of the grades not given here.

Target: T1, GST-KIAA0147 PDZ domain 3 (Homo sapiens …)
Experiment: G' assay
With B1 the Classification was 1 A450 class.

Target: T2, GST-INADL PDZ domain 5 (Homo sapiens …)
Experiment: G' assay
In the case of B2, the Classification is reported as 1 A450 class.
Binder B1 has a Classification of 1 A450 class.
B3 gave a Classification of 1 A450 class.

What follows are binders tested against GST-BAI-1 Associated Protein PDZ domain 3 (Homo sapiens (Human)), Q96QZ7 (assay: G' assay).
GST-BAI-1 Associated Protein PDZ domain 3 (Homo sapiens (Human)), Q96QZ7, sequence (Q96QZ7 other isoform, or with tags, fused parts or gaps): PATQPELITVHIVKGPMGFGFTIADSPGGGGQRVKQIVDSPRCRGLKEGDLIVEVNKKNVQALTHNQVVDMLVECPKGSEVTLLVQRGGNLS
Work on B2 yielded a Classification of 1 A450 class.
B4 gave a Classification of 5 A450 class.
B1 showed a Classification of 1 A450 class.

Target: T3, GST-MUPP1 PDZ domain 11 (Homo sapiens …)
Experiment: G' assay
Work on B4 yielded a Classification of 5 A450 class.

Target: T4, GST-INADL PDZ domain 8 (Homo sapiens …)
Experiment: G' assay
B2 was tested, and the Classification was 2 A450 class.
Binder B4 has a Classification of 2 A450 class.
B1 gave a Classification of 1 A450 class.

Target: T5, GST-KIAA1634 PDZ domain 2 (Homo sapiens …)
Experiment: G' assay
Binder B4 has a Classification of 5 A450 class.
B1 was tested, and the Classification was 3 A450 class.
B3 showed a Classification of 1 A450 class.

Target: T6, GST-DLG2 PDZ domain 2 (Homo sapiens …)
Experiment: G' assay
For B2, the Classification was 1 A450 class.
B4 gave a Classification of 5 A450 class.
B1 was tested, and the Classification was 5 A450 class.

Target: T7, GST-NeDLG PDZ domain 3 (Mus musculus …)
Experiment: G' assay
In the case of B2, the Classification is reported as 1 A450 class.
B1 gave a Classification of 1 A450 class.

What follows are binders tested against GST-DLG1 PDZ domains 1, 2 (Homo sapiens), Q12959 (assay: G' assay).
With B2 the Classification was 3 A450 class.
For B4, the Classification was 5 A450 class.
With B1 the Classification was 5 A450 class.

Target: T8, GST-NeDLG PDZ domain 2 (Rattus …)
Experiment: G' assay
B4 showed a Classification of 5 A450 class.
For B1, the Classification was 5 A450 class.

What follows are binders tested against GST-PSD95 PDZ domain 1 (Homo sapiens) (assay: G' assay).
Work on B2 yielded a Classification of 1 A450 class.
For B4, the Classification was 4 A450 class.
With B1 the Classification was 5 A450 class.

Each binder was assayed against GST-PSD95 PDZ domains 1, 2, 3 (Homo sapiens), P78352 (assay: G' assay).
GST-PSD95 PDZ domains 1, 2, 3 (Homo sapiens), P78352, sequence (P78352 62-395): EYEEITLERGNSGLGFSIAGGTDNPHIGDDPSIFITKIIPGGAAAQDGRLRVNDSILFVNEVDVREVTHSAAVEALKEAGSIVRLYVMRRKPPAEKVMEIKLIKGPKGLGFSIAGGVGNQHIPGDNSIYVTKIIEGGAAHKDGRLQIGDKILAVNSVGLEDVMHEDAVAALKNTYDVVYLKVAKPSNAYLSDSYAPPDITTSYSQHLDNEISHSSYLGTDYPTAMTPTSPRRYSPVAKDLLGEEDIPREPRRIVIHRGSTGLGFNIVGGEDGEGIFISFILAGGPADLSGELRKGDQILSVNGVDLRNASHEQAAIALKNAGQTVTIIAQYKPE
B2 gave a Classification of 2 A450 class.
B4 showed a Classification of 5 A450 class.
B1 was tested, and the Classification was 5 A450 class.

Target: T9, GST-PTPL1 PDZ domain 4 (Homo sapiens …)
Experiment: G' assay
B2 showed a Classification of 1 A450 class.
With B4 the Classification was 4 A450 class.

Target: T10, GST-X-11 beta PDZ domain 2 (Rattus …)
Experiment: G' assay
B5 showed a Classification of 1 A450 class.

Target: T11, GST-KIAA0147 PDZ domain 4 (Homo sapiens …)
Experiment: G' assay
Binder B2 has a Classification of 1 A450 class.

Target: T12, GST-ZO-2 PDZ domain 1 (Homo sapiens …)
Experiment: G' assay
B4 was tested, and the Classification was 3 A450 class.

Target: T13, GST-DLG1 PDZ domain 2 (Homo sapiens), …
Experiment: G' assay
In the case of B2, the Classification is reported as 2 A450 class.
B4 gave a Classification of 5 A450 class.
For B1, the Classification was 5 A450 class.

Target: T14, GST-ZO-1 PDZ domain 1 (Rattus …)
Experiment: G' assay
B4 was tested, and the Classification was 2 A450 class.

What follows are binders tested against GST-DLG1 PDZ domain 1 (Homo sapiens), Q12959 (assay: G' assay).
In the case of B2, the Classification is reported as 1 A450 class.
B4 was tested, and the Classification was 4 A450 class.
B1 gave a Classification of 5 A450 class.
